Measured values reported in patent publication US20260355310A1, “TREATMENT OF IGA NEPHROPATHY USING AN ENDOTHELIN RECEPTOR ANTAGONIST AND APRIL BINDING ANTIBODY” (CHINOOK THERAPEUTICS, INC., priority 2022, published 2026).

What was measured:
[1] = Oxidation reduction potential; assay type: physicochemical
[2] = test system: patients with diabetic kidney disease (DKD); conditions: Heerspink et al. 2019; cited from earlier work
[3] = test system: endothelin A (ETA) receptor; conditions: cited from earlier work
[4] = target: ETB receptor; conditions: Wu-Wong et al. 2002; cited from earlier work
[5] = test system: IgA nephropathy patients; conditions: DAPA-CKD subanalysis; Wheeler et al. 2021; cited from earlier work
[6] = test system: human B cell maturation antigen (BCMA) / human APRIL; assay: Blocking of APRIL binding to BCMA
[7] = test system: healthy human volunteers; assay: Immunoglobulin levels in healthy volunteers; assay type: in vivo
Description: (§1) A humanized APRIL antagonistic monoclonal antibody (anti-APRIL antibody, as described herein) is in development for the treatment of IgAN, having undergone clinical trials in healthy volunteers (see clinicaltrials.gov NCT03945318). […] In addition, this blockade reduced Gd-IgAQ1 in healthy human volunteers. Consequently, it is expected that blockade of APRIL in patients with IgAN will lead to a reduction in levels of IgA, IgG, and IgM and corresponding reductions in gd-IgA1, auto-antibodies to gd-IgA1, immune complex deposition and renal damage.

[8] = test system: transmembrane activator and calcium modulator and cyclophilin ligand interactor (TACI) / human APRIL; assay: Blocking of APRIL binding to TACI
[9] = test system: transmembrane activator and calcium modulator and cyclophilin ligand interactor (TACI) / human APRIL; conditions: receptors on lymphocytes; Guadagnoli 2011; cited from earlier work
[10] = test system: healthy cynomolgus monkeys; assay: Immunoglobulin levels in healthy cynomolgus monkeys; assay type: in vivo
Description: as §1

[11] = test system: BAFF; assay: Binding to BAFF; conditions: BION-1301
[12] = test system: human B cell maturation antigen (BCMA) / human APRIL; conditions: receptors on lymphocytes; Guadagnoli 2011; cited from earlier work
[13] = test system: patients with IgAN; assay: Phase 1/2 clinical study in patients with IgAN, interim results; assay type: in vivo, human
Description: BION-1301 has been studied in adults with relapsed or refractory multiple myeloma as well as healthy volunteers (HVs) and adults with IgAN. Since the initiation of the BION-1301 clinical program through 26 Jul. 2022, a total of 153 adults have been enrolled in 5 clinical studies. […] Gd-IgA1, and proteinuria (as measured by areduction in UPCR).
BION-1301 has been studied in adults with relapsed or refractory multiple myeloma as well as healthy volunteers (HVs) and adults with IgAN. Since the initiation of the BION-1301 clinical program through 26 Jul. 2022, a total of 153 adults have been enrolled in 5 clinical studies.

[14] = IV 450 mg Q2W, patients with IgAN, interim results
[15] = SC 600 mg Q2W after at least 24 weeks of IV administration

CCCCN(CCCC)C(=O)CN1C[C@H](c2ccc3c(c2)OCO3)[C@@H](C(=O)O)[C@@H]1c1ccc(OC)cc1 [Atrasentan, (2R,3R,4S)-4-(1,3-benzodioxol-5-yl)-1-[2-(dibutylamino)-2-oxoethyl]-2-(4-methoxyphenyl)pyrrolidine-3-carboxylic acid]
oxidation reduction potential [1]: about 900 mV | risk of renal events (doubling of serum creatinine or end-stage kidney disease) [2]: significantly reducing the risk of renal events | selectivity for ETA relative to ETB ([3]; ETA inhibitor, ETA relative to ETB, literature): about 1,860 times | ETA selectivity ([3]; ETA relative to ETB, Wu-Wong et al. 2002): ~ 1800 x | Ki ([3]; Wu-Wong et al. 2002): ~0.034 nM | Ki [4]: ~63 nM

CCOc1ccc(Cc2cc([C@@H]3O[C@H](CO)[C@@H](O)[C@H](O)[C@H]3O)ccc2Cl)cc1 [dapagliflozin]
safety and efficacy as addition to standard of care in IgA nephropathy [5]: may be a safe and effective addition to current standard of care in IgA nephropathy

B1: BION-1301: IgG4 humanized monoclonal antibody having CAS Registry No. 2642175-46-8; SEQ ID NO: 28 for the heavy chain and SEQ ID NO: 30 for the light chain (antibody, chains of the INN, looked up, V domains shown)
VH: QVQLVQSGAEVKKPGASVKVSCKASGYTFTDYTIHWVRQATGQGLEWMGWIYPLRGSINYAQKFQGRVTMTADKSISTVYMELSSLRSEDTAVYFCARHGAYYSNAFDYWGQGTLVTVSS
VL: EIVMTQSPATLSVSPGERATLSCRASESVDNDGIRFLHWYQQKPGQAPRLLIYRASTRATGIPARFSGSGSRTEFTLTISSLQSEDFAVYYCQQSNKDPYTFGGGTKVEIK
blocks binding of human APRIL to BCMA [6]: blocks the binding | Gd-IgA1 ([7]; healthy human volunteers): reduced | levels of IgA ([7]; healthy volunteers): significantly reduce the levels of IgA | blocks binding of human APRIL to TACI [8]: blocks the binding | blocks interaction of APRIL with TACI [9]: effectively blocks | IgA [10]: significantly lower | IgM [10]: significantly lower | binding to BAFF [11]: does not bind BAFF | blocks interaction of APRIL with BCMA [12]: effectively blocks | Gd-IgA1 [13, 14]: sustained reductions | free (unbound) APRIL [13, 14]: sustained reductions | proteinuria (as measured by reduction in UPCR) [13, 14]: sustained reductions | tolerability [13, 14]: well-tolerated | BION-1301 exposures after transition to SC dosing [13, 15]: maintained similar BION-1301 exposures | biomarker responses after transition to SC dosing [13, 15]: maintained similar BION-1301 exposures, biomarker responses | proteinuria reductions after transition to SC dosing [13, 15]: maintained similar BION-1301 exposures, biomarker responses and proteinuria reductions | serum BION-1301 concentrations ([13]; following IV infusion, patients with IgAN vs healthy volunteers at same dose and schedule): appeared comparable to those observed in healthy volunteers at the same dose and schedule | 24-hour UPCR ([13]; patients treated with BION-1301, on average): reduction in 24-hour UPCR which was evident by 3 months and continue to decline beyond 1 year
